# Residue numbers refer to the chain shown, from its start.
# T1: mouse FcγRII extracellular domain, C-terminal His tag (mouse, UniProt P08101 30-210)
# T1 construct: Whole entry named; also called mFcγRII; mFcgRII
# T1 sequence: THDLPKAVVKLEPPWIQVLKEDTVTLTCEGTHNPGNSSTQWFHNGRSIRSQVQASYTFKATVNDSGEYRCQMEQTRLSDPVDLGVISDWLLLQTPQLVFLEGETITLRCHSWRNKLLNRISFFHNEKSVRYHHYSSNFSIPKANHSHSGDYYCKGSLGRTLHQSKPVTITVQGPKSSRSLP
# T2: mouse FcγRIII extracellular domain, C-terminal His tag (mouse, UniProt P08508 31-215)
# T2 construct: Whole entry named; also called mFcγRIII; mFcgRIII
# T2 chain: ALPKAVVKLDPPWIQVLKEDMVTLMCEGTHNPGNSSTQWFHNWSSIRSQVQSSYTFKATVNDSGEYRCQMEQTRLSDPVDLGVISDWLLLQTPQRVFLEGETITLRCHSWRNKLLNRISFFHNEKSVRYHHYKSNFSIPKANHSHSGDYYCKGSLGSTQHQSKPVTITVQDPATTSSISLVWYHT
# T3: mouse FcγRII (mouse, UniProt P08101 30-210)
# T3 construct: also called mFcγRII; mFcgRII
# T3 sequence: T1 sequence
# T4: mouse FcγRIII (mouse, UniProt P08508 31-215)
# T4 construct: also called mFcγRIII; mFcgRIII
# T4 chain: T2 chain
# B1: H237-MB564/MRAL-k0 (antibody, mouse IgG1, kappa)
# heavy: QVQLQESGPGLVKPSETLSLTCAVSGHSISHDHAWSWVRQPPGEGLEWIGFISYSGITNYNPSLQGRVTISRDNSKNTLYLQMNSLRAEDTAVYYCARSLARTTAMDYWGEGTLVTVSSAKTTPPSVYPLAPGSAAQTNSMVTLGCLVKGYFPEPVTVTWNSGSLSSGVHTFPAVLQSDLYTLSSSVTVPSSTWPSETVTCNVAHPASSTKVDKKIVPRDCGCKPCICTVPEVESVDIFPPKPKDVLTITLTPKVTCVVVDISKDDPEVQFSWFVDDVEVHTAQTQPREEQFNSTFRSVSELPIMHQDWLNGKEFKCRVNSAAFPAPIEKTISKTKGRPKAPQVYTIPPPKEQMAKDKVSLTCMITDFFPEDITVEWQWNGQPAENYKNTQPIMDTDGSYFVYSKLNVQKSNWEAGNTFTCSVLHEGLHNHHTEKSLSHSPGK
# light: not shown
# notes: copies: 2 + 2
# B2: H237-MB571/MRAL-k0 (antibody, mouse IgG1, kappa)
# heavy: B1 heavy with V233E, E234S, S235F, D237F
# light: not shown
# notes: copies: 2 + 2
# B3: H237-MB566/MRAL-k0 (antibody, mouse IgG1, kappa)
# heavy: B1 heavy with D237T
# light: not shown
# notes: copies: 2 + 2
# B4: H237-MB563/MRAL-k0 (antibody, mouse IgG1, kappa)
# heavy: B1 heavy with S235W, D237F
# light: not shown
# notes: copies: 2 + 2
# B5: H237-MB364/MRAL-k0 (antibody)
# heavy: B1 heavy with T229E, V230A, P231K, S235D, D237F
# light: not shown
# notes: copies: 2 + 2
# B6: H237-MB565/MRAL-k0 (antibody, mouse IgG1, kappa)
# heavy: B1 heavy with D237E
# light: not shown
# notes: copies: 2 + 2
# B7: H237-MB572/MRAL-k0 (antibody, mouse IgG1, kappa)
# heavy: B1 heavy with V233E, E234S, S235W, D237F
# light: not shown
# notes: copies: 2 + 2
# B8: H237-MB561/MRAL-k0 (antibody, mouse IgG1, kappa)
# heavy: B1 heavy with V233E, D237F
# light: not shown
# notes: copies: 2 + 2
# B9: H237-MB562/MRAL-k0 (antibody, mouse IgG1, kappa)
# heavy: B1 heavy with S235F, D237F
# light: not shown
# notes: copies: 2 + 2
# B10: H237-MB567/MRAL-k0 (antibody, mouse IgG1, kappa)
# heavy: B1 heavy with D237F, S263M
# light: not shown
# notes: copies: 2 + 2
# B11: H237-MB568/MRAL-k0 (antibody, mouse IgG1, kappa)
# heavy: B1 heavy with D237F, S294H
# light: not shown
# notes: copies: 2 + 2
# B12: MB311 (antibody, mouse IgG1, kappa)
# heavy: B1 heavy with V230D, E234S, S235D, V236E, D237F
# light: not shown
# notes: copies: 2 + 2
# B13: MB320 (antibody, mouse IgG1, kappa)
# heavy: B1 heavy with T229E, V230A, P231E, S235D, V236E, D237F
# light: not shown
# notes: copies: 2 + 2
# B14: MB319 (antibody, mouse IgG1, kappa)
# heavy: B1 heavy with T229E, V230A, P231E, S235D, D237F
# light: not shown
# notes: copies: 2 + 2
# B15: MB313 (antibody, mouse IgG1, kappa)
# heavy: B1 heavy with P231E, S235D, D237F
# light: not shown
# notes: copies: 2 + 2
# B16: MB318 (antibody, mouse IgG1, kappa)
# heavy: B1 heavy with T229E, P231E, S235D, D237F
# light: not shown
# notes: copies: 2 + 2
# B17: MB321 (antibody, mouse IgG1, kappa)
# heavy: B1 heavy with T229E, V230A, P231E, S235D, V236H, D237F
# light: not shown
# notes: copies: 2 + 2
# B18: MB315 (antibody, mouse IgG1, kappa)
# heavy: B1 heavy with P231E, E234S, S235D, V236H, D237F
# light: not shown
# notes: copies: 2 + 2
# B19: MB322 (antibody, mouse IgG1, kappa)
# heavy: B1 heavy with T229E, V230D, P231E, S235D, D237F
# light: not shown
# notes: copies: 2 + 2
# B20: MB317 (antibody, mouse IgG1, kappa)
# heavy: B1 heavy with S235D, V236H, D237F
# light: not shown
# notes: copies: 2 + 2
# B21: MB312 (antibody, mouse IgG1, kappa)
# heavy: B1 heavy with V230D, E234S, S235D, V236H, D237F
# light: not shown
# notes: copies: 2 + 2
# B22: MB323 (antibody, mouse IgG1, kappa)
# heavy: B1 heavy with T229E, V230D, P231E, S235D, V236E, D237F
# light: not shown
# notes: copies: 2 + 2
# B23: MB316 (antibody, mouse IgG1, kappa)
# heavy: B1 heavy with S235D, V236E, D237F
# light: not shown
# notes: copies: 2 + 2
# B24: MB326 (antibody, mouse IgG1, kappa)
# heavy: B1 heavy with T229E, P231E, S235D, V236H, D237F
# light: not shown
# notes: copies: 2 + 2
# B25: MB325 (antibody, mouse IgG1, kappa)
# heavy: B1 heavy with T229E, P231E, S235D, V236E, D237F
# light: not shown
# notes: copies: 2 + 2
# B26: MB314 (antibody, mouse IgG1, kappa)
# heavy: B1 heavy with P231E, E234S, S235D, V236E, D237F
# light: not shown
# notes: copies: 2 + 2
# B27: MB324 (antibody, mouse IgG1, kappa)
# heavy: B1 heavy with T229E, V230D, P231E, S235D, V236H, D237F
# light: not shown
# notes: copies: 2 + 2
# Molecular target: T1, mouse FcγRII extracellular domain, …
# Experiment: SPR (Biacore T200); KD of H237-mIgG1/MRAL-k0 / KD of variant
row,relative mFcγRII-binding activity (mIgG1 = 1) [fold],Binder
1,0.32,B1
2,0.22,B2
3,0.18,B3
4,0.2,B4
5,6.55,B5
6,0.66,B6
7,0.26,B7
8,0.48,B8
9,0.05,B9
10,0.21,B10
11,0.71,B11

# Molecular target: T2, mouse FcγRIII extracellular domain, …
# Experiment: as above
row,relative mFcγRIII-binding activity (mIgG1 = 1) [fold],Binder
1,0.11,B1
2,0.05,B2
3,0.1,B3
4,0.08,B4
5,1.35,B5
6,0.23,B6
7,0.07,B7
8,0.07,B8
9,0.02,B9
10,0.07,B10
11,0.18,B11

# Molecular target: T3, mouse FcγRII
# Experiment: SPR Biacore T200, KD ratio
# Description: (§1) The antibody H chain variable region used was the variable region H237 (SEQ ID NO: 1) of the H chain VH3-IgG1 of the anti-IL-6 receptor antibody Fv4-IgG1 described in WO2009/125825. The antibody L chain commonly used was the L chain MRAL-k0 (SEQ ID NO: 2) of the anti-IL-6 receptor antibody tocilizumab. […] The resulting variant group was designated as MB110 variants. These variants were expressed and purified by the method of Reference Example 1 and evaluated for their binding to mFcγRII and mFcγRIII by the method of Reference Example 2 using Biacore T200.
# (§2) Each altered antibody was analyzed for its interaction with each Fcγ receptor prepared above using Biacore T100 (GE Healthcare Japan Corp.), Biacore T200 (GE Healthcare Japan Corp.), Biacore A100, or Biacore 4000. The running buffer used was HBS-EP+ (GE Healthcare Japan Corp.). The assay temperature was set to 25° C. The sensor chips used were chips prepared by immobilizing Protein L (ACTIGEN or BioVision) onto Series S Sensor Chip CM5 (GE Healthcare Japan Corp.) or Series S Sensor Chip CM4 (GE Healthcare Japan Corp.) by the amine coupling method.
# (§3) In order to calculate the KD value of each altered antibody for FcγR, kinetic analysis was conducted according to the following method: first, the antibody of interest was captured onto any of these chips and allowed to interact with mFcγR diluted with a running buffer. For the obtained sensorgram, the assay results were globally fit into the 1:1 Langmuir binding model using Biacore Evaluation Software to calculate an association rate constant ka (L/mol/s) and a dissociation rate constant kd (1/s). From these values, the dissociation constant KD (mol/L) was calculated.
Relative mFcγRII-binding activity (MB110 = 1) [fold],relative mFcγRII-binding activity (mIgG1 = 1) [fold],Binder
1.43,17.6,B12
0.26,3.2,B13
4.07,50,B14
3.27,40.1,B15
3.29,40.5,B16
0.28,3.5,B17
0.48,5.9,B18
0.75,9.2,B19
0.49,6,B20
4.51,55.4,B21
0.13,1.7,B22
0.61,7.4,B23
0.33,4,B24
0.38,4.7,B25
0.58,7.1,B26
0.09,1.1,B27

# Molecular target: T4, mouse FcγRIII
# Experiment: SPR Biacore T200, KD ratio
# Description: as §1, §2, §3
Relative mFcγRIII-binding activity (MB110 = 1) [fold],relative mFcγRIII-binding activity (mIgG1 = 1) [fold],Binder
0.52,2.1,B12
0.11,0.4,B13
0.89,3.6,B14
0.99,4,B15
0.96,3.9,B16
0.05,0.2,B17
0.2,0.8,B18
0.31,1.3,B19
0.12,0.5,B20
0.87,3.5,B21
0.03,0.1,B22
0.31,1.2,B23
0.06,0.2,B24
0.15,0.6,B25
0.27,1.1,B26
0.03,0.1,B27
